Test [1] concerns the target human CD3 (CD3ε of the TCR/CD3 complex) on purified human CD3 T cells (human) (UniProt P07766). The test is described as follows: flow cytometry on CD3+ Jurkat cells, 10 µg/mL, FL1: anti-His FITC, GRN-HLin (left panel). DOUBTFUL: the printed value disagrees with the histogram, which lies right of ESK1+L2K, and equals the second row of the left table of FIGURE 8.
Test [2] has the same target. Briefly: flow cytometry on purified human CD3 T cells, antibody at 0.1 µg/ml. (In general: Flow cytometry measures light scatter and fluorescence of single cells or particles in a stream.)
Test [3] has the same target. The test is described as follows: flow cytometry on purified human CD3 T cells, antibody at 10 µg/ml.
Test [4] shares this target. The test is described as follows: flow cytometry on purified human CD3 T cells, antibody at 1 µg/ml.
For test [5] the target is unchanged. The test is described as follows: flow cytometry on CD3+ Jurkat cells, 10 µg/mL, FL4: anti-His mouse mAb + APC anti mIgG, RED2-HLin (right panel); unstained Jurkat 7.61.

B1: control bi-specific antibody (irrelevant human IgG1 antibody ET901 as scFv replacing ESK1 scFv, with anti-CD3 scFv) (bispecific antibody, part only; not given: ET901 control scFv, part only)
chain, part: DVQLVQSGAEVKKPGASVKVSCKASGYTFTRYTMHWVRQAPGQGLEWIGYINPSRGYTNYADSVKGRFTITTDKSTSTAYMELSSLRSEDTATYYCARYYDDHYCLDYWGQGTTVTVSSGEGTSTGSGGSGGSGGADDIVLTQSPATLSLSPGERATLSCRASQSVSYMNWYQQKPGKAPKRWIYDTSKVASGVPARFSGSGSGTDYSLTINSLEAEDAATYYCQQWSSNPLTFGGGTKVEIK
With B1, the Geom. Mean in test [1] turned out to be 47.9; in test [5], 94.3. The Median fluorescence intensity (MFI) in test [2] is 26.2 MFI; in test [3] it was 188 MFI; in test [4] it was 153 MFI.
